The assay has as its target T1, GST-CTU2 (Arabidopsis thaliana (Mouse-ear cress), UniProt O65628).
T1 chain: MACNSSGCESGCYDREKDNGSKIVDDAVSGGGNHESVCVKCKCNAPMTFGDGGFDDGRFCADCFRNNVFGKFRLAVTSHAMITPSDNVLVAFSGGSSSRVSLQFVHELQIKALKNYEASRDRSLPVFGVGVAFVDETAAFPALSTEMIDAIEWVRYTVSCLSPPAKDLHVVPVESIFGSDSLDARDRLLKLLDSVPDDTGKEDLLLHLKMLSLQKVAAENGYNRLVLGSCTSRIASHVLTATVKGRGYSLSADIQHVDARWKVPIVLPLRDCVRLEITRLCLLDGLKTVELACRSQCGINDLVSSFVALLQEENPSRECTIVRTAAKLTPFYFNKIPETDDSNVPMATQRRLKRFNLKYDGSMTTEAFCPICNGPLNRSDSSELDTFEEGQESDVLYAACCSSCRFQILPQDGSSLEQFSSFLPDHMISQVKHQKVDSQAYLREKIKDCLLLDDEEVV
Description: GST pull-down.

The results in this text go back to paper PMC10863982 (2024).

B1: ROL5-His (protein)
chain: MEAKNKKAVASRLCCLCNLRRPVLKRPKTLQQICRECFYEVFEEEIHQVIVQNRLFKSGERVAIGASGGKDSTVLAYVLSELNRRHNYGLDLFLLSIDEGITGYRDDSLETVKRNEVQYGLPLKIVSYKDLYGWTMDEIVKMIGLKNNCTFCGVFRRQALDRGAALLKVEKLVTGHNADDIAETVLLNILRGDIARLSRCTSITTGEDGPIPRCKPFKYTYEKEIVMYAYFKKLDYFSTECIYSPNAYRGFAREFIKDLERIRPRAILDIIKSGEDFRIATTTKMPEQGTCERCGYISSQKWCKACVLLEGLNRGLPKMGIGRPRGVNGDHNKETKKPGSVAKSIESKQCGSLDF
On to B1, for which the binding result is on record as “binds”.
